Laboratory results: patent US20210115144A1 (Dana-Farber, published 2021)

B3: human HHLA2-mIgG2a fusion protein (Fc fusion, not shown: a dimerising Fc or GST)
chain: IFPLAFFIYVPMNEQIVIGRLDEDIILPSSFERGSEVVIHWKYQDSYKVHSYYKGSDHLESQDPRYANRTSLFYNEIQNGNASLFFRRVSLLDEGIYTCYVGTAIQVITNKVVLKVGVFLTPVMKYEKRNTNSFLICSVLSVYPRPIITWKMDNTPISENNMEETGSLDSFSINSPLNITGSNSSYECTIENSLLKQTWTGRWTMKDGLHKMQSEHVSLSCQPVNDYFSPNQDFKVTWSRMKSGTFSVLAYYLSSSQNTIINESRFSWNKELINQSDFSMNLMDLNLSDSGEYLCNISSDEYTLLTIHTVHVEPSQETASHN
notes: also called hHHLA2-mIgG2a; HHLA2-Fc

Experiments:
[1] = target: T1, human HHLA2 expressed on transfected cells (300.19 mouse pre-B cells; CHO cells) (human, UniProt Q9UM44 23-414); assay: flow cytometry, mAb on HHLA2-transfected 300.19 mouse pre-B cells
T1 construct: also called B7-H7; B7H7
T1 sequence: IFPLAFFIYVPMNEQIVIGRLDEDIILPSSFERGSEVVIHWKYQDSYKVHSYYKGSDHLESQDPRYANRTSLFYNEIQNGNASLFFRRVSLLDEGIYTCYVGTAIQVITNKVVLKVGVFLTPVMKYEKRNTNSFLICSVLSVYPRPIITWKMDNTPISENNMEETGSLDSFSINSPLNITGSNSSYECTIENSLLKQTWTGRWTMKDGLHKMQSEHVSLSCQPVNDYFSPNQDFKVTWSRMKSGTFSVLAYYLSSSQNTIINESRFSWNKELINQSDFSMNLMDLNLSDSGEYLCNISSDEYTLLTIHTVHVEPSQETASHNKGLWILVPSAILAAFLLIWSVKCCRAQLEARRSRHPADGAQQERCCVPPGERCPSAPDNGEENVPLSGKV

[2] = target: T1, human HHLA2 expressed on transfected …; assay: flow cytometry, mAb titrated on human HHLA2-transfected 300.19 pre-B cells
Method: (§1) Binding of different HHLA2 mAbs to human and cynomolgus monkey HHLA2 was also tested and EC50 binding analysis was conducted (FIGS. 13A and 13B). […] HHLA2 mAb binding to transfected 300.19 cells was detected with PE-labeled goat anti-mouse IgG (H+L). EC50 analysis was conducted using Graph Pad Prism.

[3] = target: T2, cynomolgus monkey HHLA2 expressed on transfected 300.19 pre-B cells (cynomolgus monkey); assay: flow cytometry, mAb titrated on cynomolgus monkey HHLA2-transfected 300.19 pre-B cells
T2 construct: whole, on cells
Method: FIGS. 13A and 13B show HHLA2 mAb binding to human and cynomolgus monkey HHLA2. […] HHLA2 mAb binding to transfected 300.19 cells was detected with a PE-labeled goat anti-mouse IgG (H+L) by flow cytometry.
as §1

[4] = target: T1, human HHLA2 expressed on transfected …; assay: flow cytometry, mAb titrated on HHLA2-transfected 300.19 pre-B cells, PE goat anti-mouse IgG
Method: (§2) HHLA2 mAb cell binding and receptor blockade experiments were then performed. […] HHLA2 mAb binding to transfected 300.19 cells was detected with PE-labeled goat anti-mouse IgG (H+L). For HHLA2 mAb blocking experiments different concentration of HHLA2 mAbs were pre-incubated with 4 ug/ml of HHLA2-mIgG2a at a 1:1 ratio for 30 minutes and added to either TMIGD2 or KIR3DL3 transfected 293T cells and incubated for 30 minutes at 4° C. HHLA2-mIgG2a binding to TMIGD2 or KIR3DL3 transfected 293T cells was detected with a PE labeled Fab2 goat anti-mIgG2a antibody. EC50 and IC50 analyses were conducted using Graph Pad Prism. It was shown that HHLA2 mAb clone 2C4 has desired properties of complete KIR3DL3 blockade and partial TMIGD2 blockade (Table 6).

[5] = target: T1, human HHLA2 expressed on transfected …; assay: as above; remark: listed apart in the source
Method: as §1

[6] = target: B3; assay: flow cytometry, mAb pre-incubated with 4 ug/ml HHLA2-mIgG2a; blockade of its binding to TMIGD2-transfected 293T cells
Method: as §2

[7] = target: B3; assay: flow cytometry, mAb pre-incubated with 4 ug/ml HHLA2-mIgG2a; blockade of its binding to KIR3DL3-transfected 293T cells
Method: as §2

[8] = target: B3; assay: flow cytometry, mAb pre-incubated with 4 ug/ml HHLA2-mIgG2a; blockade of its binding to TMIGD2-transfected 300.19 pre-B cells
Method: (§3) HHLA2 mAb binding to transfected 300.19 cells was detected with PE-labeled goat anti-mouse IgG (H+L). […] EC50 and IC50 analyses were conducted using Graph Pad Prism. It was shown that HHLA2 mAb clone 2C4 has desired properties of complete KIR3DL3 blockade and partial TMIGD2 blockade (Table 7).

[9] = target: B3; assay: flow cytometry, mAb pre-incubated with 4 ug/ml HHLA2-mIgG2a; blockade of its binding to KIR3DL3-transfected 300.19 pre-B cells
Method: as §3

[10] = target: B3; assay: cell microarray, soluble HHLA2-mIg fusion protein on transfected HEK293 cells
KIR2DL1 = target: T3, KIR2DL1 (human, UniProt P43626 22-348); assay: cell microarray, HHLA2-mIgG2a on fixed transfected HEK293 cells, AF647 anti-mouse IgG detection
T3 construct: whole, on cells
T3 sequence (P43626 22-348): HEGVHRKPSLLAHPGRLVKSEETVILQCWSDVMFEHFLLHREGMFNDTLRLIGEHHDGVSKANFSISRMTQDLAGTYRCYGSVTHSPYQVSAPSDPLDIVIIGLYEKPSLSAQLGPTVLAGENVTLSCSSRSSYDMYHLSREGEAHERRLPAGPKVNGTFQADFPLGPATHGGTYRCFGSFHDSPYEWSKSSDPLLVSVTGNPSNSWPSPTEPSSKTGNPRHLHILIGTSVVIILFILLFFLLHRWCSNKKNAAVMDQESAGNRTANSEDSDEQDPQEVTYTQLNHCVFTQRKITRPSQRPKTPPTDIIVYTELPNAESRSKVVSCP
Method: (§4) Human HHLA2-mIgG2a fusion protein was added to slides of fixed, transfected HEK293 cell slides at a 20 ug/ml concentration, and the protein was detected with an AF647 labeled anti-mouse IgG detection antibody. Two replicate slides were screened for each of the 13 slide sets. Fluorescent images were analyzed and quantitated (for transfection efficiency) using ImageQuant software (GE). A protein ‘hit’ was defined as duplicate spots showing a raised signal compared to background levels. This was achieved by visual inspection using the images gridded on the ImageQuant software.
(§5) Addition of the AF647 labeled anti-mouse IgG detection antibody alone in the absence of HHLA2-mIgG2a produced no signal. The selectivity of HHLA2 binding to KIR3DL3 was evaluated using a panel of 14 KIR receptors arrayed on slides.

KIR2DL2 = target: T4, KIR2DL2 (human, UniProt P43627 22-348); assay: as above
T4 construct: whole, on cells
T4 sequence (P43627 22-348): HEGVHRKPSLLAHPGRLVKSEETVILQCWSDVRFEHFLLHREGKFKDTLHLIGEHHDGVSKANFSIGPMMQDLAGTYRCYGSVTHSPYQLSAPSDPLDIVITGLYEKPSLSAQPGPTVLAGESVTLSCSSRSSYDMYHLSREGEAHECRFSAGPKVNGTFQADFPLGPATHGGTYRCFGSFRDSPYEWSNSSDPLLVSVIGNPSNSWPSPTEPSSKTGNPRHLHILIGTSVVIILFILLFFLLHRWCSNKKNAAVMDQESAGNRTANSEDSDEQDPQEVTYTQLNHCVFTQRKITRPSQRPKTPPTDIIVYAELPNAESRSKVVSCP
Method: as §4, §5

KIR2DL4 = target: T5, KIR2DL4 (human, UniProt Q99706 22-377); assay: as above
T5 construct: whole, on cells
T5 sequence (Q99706 22-377): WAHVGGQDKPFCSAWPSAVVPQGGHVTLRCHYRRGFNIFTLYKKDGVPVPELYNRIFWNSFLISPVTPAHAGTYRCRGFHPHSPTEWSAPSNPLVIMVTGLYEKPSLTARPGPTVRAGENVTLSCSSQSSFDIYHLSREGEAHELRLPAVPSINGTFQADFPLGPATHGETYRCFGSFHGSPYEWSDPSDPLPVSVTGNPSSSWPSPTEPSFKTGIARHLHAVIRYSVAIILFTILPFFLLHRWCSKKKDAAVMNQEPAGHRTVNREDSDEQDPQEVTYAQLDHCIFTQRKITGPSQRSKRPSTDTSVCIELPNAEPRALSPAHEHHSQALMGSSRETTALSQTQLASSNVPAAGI
Method: as §4, §5

KIR2DL5A = target: T6, KIR2DL5A (human, UniProt Q8N109 22-375); assay: as above
T6 construct: whole, on cells
T6 sequence (Q8N109 22-375): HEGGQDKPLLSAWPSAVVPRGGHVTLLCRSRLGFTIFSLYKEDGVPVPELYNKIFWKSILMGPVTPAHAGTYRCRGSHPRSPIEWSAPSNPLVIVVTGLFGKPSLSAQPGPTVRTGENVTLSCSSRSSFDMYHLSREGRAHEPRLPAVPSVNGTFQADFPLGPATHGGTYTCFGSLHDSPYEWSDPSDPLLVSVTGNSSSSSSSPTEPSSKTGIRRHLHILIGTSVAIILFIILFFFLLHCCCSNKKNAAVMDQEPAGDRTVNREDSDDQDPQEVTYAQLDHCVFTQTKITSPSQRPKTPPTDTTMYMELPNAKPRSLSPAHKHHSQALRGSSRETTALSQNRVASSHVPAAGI
Method: as §4, §5

KIR2DL5B = target: T7, KIR2DL5B (human, UniProt Q8NHK3 22-375); assay: as above
T7 construct: whole, on cells
T7 sequence (Q8NHK3 22-375): as the sequence (Q8N109 22-375) above, with N152D, G174S counted along it
Method: as §4, §5

KIR3DL1 = target: T8, KIR3DL1 (human, UniProt P43629 22-444); assay: as above
T8 construct: whole, on cells
T8 sequence (P43629 22-444): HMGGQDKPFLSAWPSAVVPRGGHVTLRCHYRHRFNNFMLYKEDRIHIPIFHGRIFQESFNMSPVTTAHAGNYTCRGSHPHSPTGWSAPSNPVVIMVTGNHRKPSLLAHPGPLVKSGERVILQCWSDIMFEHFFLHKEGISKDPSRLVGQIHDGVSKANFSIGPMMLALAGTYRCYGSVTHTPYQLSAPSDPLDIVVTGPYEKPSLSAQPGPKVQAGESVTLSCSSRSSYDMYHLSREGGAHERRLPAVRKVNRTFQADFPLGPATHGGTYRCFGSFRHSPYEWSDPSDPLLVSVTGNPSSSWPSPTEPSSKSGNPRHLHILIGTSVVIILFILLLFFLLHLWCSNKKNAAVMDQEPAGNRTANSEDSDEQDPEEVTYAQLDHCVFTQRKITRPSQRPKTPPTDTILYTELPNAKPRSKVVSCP
Method: as §4, §5

KIR3DS1 = target: T9, KIR3DS1 (human, UniProt Q14943 22-382); assay: as above
T9 construct: whole, on cells
T9 sequence (Q14943 22-382): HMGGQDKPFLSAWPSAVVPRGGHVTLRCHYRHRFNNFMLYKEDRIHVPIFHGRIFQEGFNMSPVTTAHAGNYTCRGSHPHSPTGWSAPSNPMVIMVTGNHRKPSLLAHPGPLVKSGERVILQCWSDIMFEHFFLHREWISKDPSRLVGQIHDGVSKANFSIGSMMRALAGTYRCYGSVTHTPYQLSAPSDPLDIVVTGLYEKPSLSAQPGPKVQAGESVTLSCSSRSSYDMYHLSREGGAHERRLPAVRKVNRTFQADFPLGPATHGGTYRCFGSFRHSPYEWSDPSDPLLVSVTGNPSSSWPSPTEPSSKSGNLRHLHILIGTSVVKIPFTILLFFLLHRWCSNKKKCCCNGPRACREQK
Method: as §4, §5

KIR3DL2 = target: T10, KIR3DL2 (human, UniProt P43630 22-455); assay: as above
T10 construct: whole, on cells
T10 sequence (P43630 22-455): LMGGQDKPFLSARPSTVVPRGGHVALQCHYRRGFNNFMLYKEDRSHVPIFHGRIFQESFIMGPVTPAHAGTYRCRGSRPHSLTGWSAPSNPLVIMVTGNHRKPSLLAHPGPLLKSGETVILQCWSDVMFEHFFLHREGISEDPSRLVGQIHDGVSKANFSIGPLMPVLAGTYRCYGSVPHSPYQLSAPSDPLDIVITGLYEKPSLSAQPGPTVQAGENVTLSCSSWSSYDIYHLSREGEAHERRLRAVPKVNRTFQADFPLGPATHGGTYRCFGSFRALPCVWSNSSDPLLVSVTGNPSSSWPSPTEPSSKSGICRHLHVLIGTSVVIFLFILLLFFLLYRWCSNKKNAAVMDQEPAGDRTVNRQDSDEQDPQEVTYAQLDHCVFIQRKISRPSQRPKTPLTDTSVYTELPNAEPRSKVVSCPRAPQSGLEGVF
Method: as §4, §5

[11] = target: T11, human KIR3DL3 expressed on transfected cells (HEK293 microarray, 293T, 300.19) (human, UniProt Q8N743 26-410); assay: cell microarray, HHLA2-mIgG2a on fixed KIR-transfected HEK293 cells, AF647 anti-mouse IgG detection
T11 construct: also called CD158Z; KIR3DL7
T11 sequence (Q8N743 26-410 H321N limits assumed): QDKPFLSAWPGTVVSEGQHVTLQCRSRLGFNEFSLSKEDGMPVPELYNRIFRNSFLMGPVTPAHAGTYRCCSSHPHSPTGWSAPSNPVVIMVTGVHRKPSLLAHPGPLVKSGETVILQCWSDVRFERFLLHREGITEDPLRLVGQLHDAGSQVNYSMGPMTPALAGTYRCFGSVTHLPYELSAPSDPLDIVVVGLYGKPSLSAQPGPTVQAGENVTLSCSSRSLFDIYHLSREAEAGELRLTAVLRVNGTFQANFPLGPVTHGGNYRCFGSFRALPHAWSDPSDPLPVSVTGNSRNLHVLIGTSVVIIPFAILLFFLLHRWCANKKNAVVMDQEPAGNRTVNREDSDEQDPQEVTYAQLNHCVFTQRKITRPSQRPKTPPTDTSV
Method: as §4, §5

[12] = target: T1, human HHLA2 expressed on transfected …; assay: flow cytometry, staining and sorting of HHLA2-transfected 300.19 cells
Method: In particular, binding affinity for each anti-HHLA2 antibody was assayed. The HHLA2 cDNA and a vector encoding puromycin resistance were co-transfected by electroporation (300 volts, 1600 microfarads) into mouse 300.19 cells and selected with media containing 5 μg/ml puromycin. Cells expressing HHLA2 were identified by staining with TMIGD2-human Fc fusion protein and goat anti-human Fc antibody conjugated to phycoerythrin and single cell sorted by flow cytometry. Expression of HHLA2 in individual clones was confirmed by flow cytometry as described above. HHLA2-transfected 300.19 cells were titrated with anti-HHLA2 mAbs (FIG. 1A).

B1: anti-HHLA2 monoclonal antibody 6F10 (antibody, IgG1, V domains shown)
VH: QVHLQQSAAELARPGASVKMSCKASGYTFTTYTMHWVKQRPGQGLEWIGHINPSSGYTDYNQKFKDKTTLTADKSSSTAYMQLNSLTSEDSAVYYCARHPWDSDYWGQGTTLTVSS
VL: DIQMTQSPASLSASVGETVTITCRASENIDSYLAWYQQKQGRSPQLLVYAATNLADGVPSRFSGSGSGTQFSLQINRLQSEDVARYYCQHYYITPFTFGSGTKLEIA
notes: also called 499.5.6F10.A4.10; MHC2557
EC50 [1]: 0.25 µg/mL | EC50 [2]: 0.22 µg/mL | EC50 [3]: 0.4 µg/mL | EC50 [4]: 0.25 µg/mL | EC50 [5]: 0.22 µg/mL | IC50 [6]: 0.55 µg/mL | IC50 [7]: 0.9 µg/mL | IC50 [8]: 0.92 µg/mL | IC50 [9]: 0.74 µg/mL

B2: human TMIGD2 expressed on transfected cells (293T, 300.19, HEK293 microarray, Jurkat) (receptor)
chain: LSVQQGPNLLQVRQGSQATLVCQVDQATAWERLRVKWTKDGAILCQPYITNGSLSLGVCGPQGRLSWQAPSHLTLQLDPVSLNHSGAYVCWAAVEIPELEEAEGNITRLFVDPDDPTQNRNRIASFPGFLFVLLGVGSMGVAAIVWGAWFWGRRSCQQRDSGNSPGNAFYSNVLYRPRGAPKKSEDCSGEGKDQRGQSIYSTSFPQPAPRQPHLASRPCPSPRPCPSPRPGHPVSMVRVSPRPSPTQQPRPKGFPKVGEE
notes: The cDNA used in 293T and 300.19 cells is not tied to an entry in words; also called CD28H; IGPR1
binding result [10]: binds

B3
binding result (KIR2DL1): no binding (tested: 20 ug/ml) | binding result (KIR2DL2): no binding (tested: 20 ug/ml) | binding result (KIR2DL4): no binding (tested: 20 ug/ml) | binding result (KIR2DL5A): no binding (tested: 20 ug/ml) | binding result (KIR2DL5B): no binding (tested: 20 ug/ml) | binding result (KIR3DL1): no binding (tested: 20 ug/ml) | binding result (KIR3DS1): no binding (tested: 20 ug/ml) | binding result (KIR3DL2): no binding (tested: 20 ug/ml) | binding result [11]: binds

B4: human TMIGD2-human IgG1 fusion protein (R&D Systems catalog #8316-TR-050) (Fc fusion, UniProt Q96BF3 23-150, looked up)
chain: LSVQQGPNLLQVRQGSQATLVCQVDQATAWERLRVKWTKDGAILCQPYITNGSLSLGVCGPQGRLSWQAPSHLTLQLDPVSLNHSGAYVCWAAVEIPELEEAEGNITRLFVDPDDPTQNRNRIASFPG
notes: Bought reagent; also called TMIGD2-hIgG; TMIGD2-human Fc fusion protein; not shown: human IgG1 Fc portion of the bought fusion protein
binding result [12]: binds
